Results taken from US20250320281A1.

Assays:
Assay in all cases: cell-based or functional assay
[1] = target: HIV-1 envelope glycoprotein (Env) of isolate 92UG005, clade D (HIV-1)
[2] = target: HIV-1 envelope glycoprotein (Env) of isolate MGRM-C-027, clade C (HIV-1)
[3] = target: HIV-1 envelope glycoprotein (Env) of isolate CMU02, clade AE (HIV-1)
[4] = target: aMLV envelope protein (negative control pseudovirus)
[5] = target: HIV-1 envelope glycoprotein (Env) of isolate 94UG103, clade A (HIV-1)
[6] = target: HIV-1 envelope glycoprotein (Env) of isolate MGRM-D-018, clade D (HIV-1)
[7] = target: HIV-1 envelope glycoprotein (Env) of isolate 92TH021, clade AE (HIV-1)
[8] = target: HIV-1 envelope glycoprotein (Env) of isolate 92UG024, clade D (HIV-1)
[9] = target: HIV-1 envelope glycoprotein (Env) of isolate 92RW020, clade A (HIV-1)
[10] = target: HIV-1 envelope glycoprotein (Env) of isolate 93UG077, clade A (HIV-1)
[11] = target: HIV-1 envelope glycoprotein (Env) of isolate APV6, clade B (HIV-1)
[12] = target: HIV-1 envelope glycoprotein (Env) of isolate NL43, clade B (HIV-1)
[13] = target: HIV-1 envelope glycoprotein (Env) of isolate APV13, clade B (HIV-1)
[14] = target: HIV-1 envelope glycoprotein (Env) of isolate MGRM-A-010, clade A (HIV-1)
[15] = target: HIV-1 envelope glycoprotein (Env) of isolate JRCSF, clade B (HIV-1) (UniProt P20871)
[16] = target: HIV-1 envelope glycoprotein (Env) of isolate 93IN905, clade C (HIV-1)
[17] = target: HIV-1 envelope glycoprotein (Env) of isolate MGRM-C-026, clade C (HIV-1)
[18] = target: HIV-1 envelope glycoprotein (Env) of isolate APV17, clade B (HIV-1)
[19] = target: HIV-1 envelope glycoprotein (Env) of isolate JRFL, clade B (HIV-1)
[20] = target: HIV-1 envelope glycoprotein (Env) of isolate MGRM-AG-005, clade AG (HIV-1)
[21] = target: HIV-1 envelope glycoprotein (Env) of isolate MGRM-C-028, clade C (HIV-1)
[22] = target: HIV-1 envelope glycoprotein (Env) of isolate 92BR020, clade B (HIV-1)
[23] = target: HIV-1 envelope glycoprotein (Env) of isolate MGRM-D-001, clade D (HIV-1)

B1: PGT-135 (5343_B08; 5344_E16) human monoclonal anti-HIV antibody (antibody, V domains shown)
VH: QLQMQESGPGLVKPSETLSLSCTVSGDSIRGGEWGDKDYHWGWVRHSAGKGLEWIGSIHWRGTTHYKESLRRRVSMSIDTSRNWFSLRLASVTAADTAVYFCARHRHHDVFMLVPIAGWFDVWGPGVQVTVSS
VL: EIVMTQSPDTLSVSPGETVTLSCRASQNINKNLAWYQYKPGQSPRLVIFETYSKIAAFPARFVASGSGTEFTLTINNMQSEDVAVYYCQQYEEWPRTFGQGTKVDIK
IC50 (neutralization of pseudovirus) [1]: > 10 µg/mL | IC80 (neutralization of pseudovirus) [1]: > 10 µg/mL | IC90 (neutralization of pseudovirus) [1]: > 10 µg/mL | IC95 (neutralization of pseudovirus) [1]: > 10 µg/mL | IC50 (neutralization of pseudovirus) [2]: > 10 µg/mL | IC80 (neutralization of pseudovirus) [2]: > 10 µg/mL | IC90 (neutralization of pseudovirus) [2]: > 10 µg/mL | IC95 (neutralization of pseudovirus) [2]: > 10 µg/mL | IC50 (neutralization of pseudovirus) [3]: > 10 µg/mL | IC80 (neutralization of pseudovirus) [3]: > 10 µg/mL | IC90 (neutralization of pseudovirus) [3]: > 10 µg/mL | IC95 (neutralization of pseudovirus) [3]: > 10 µg/mL | IC50 (neutralization of pseudovirus) [4]: > 10 µg/mL | IC80 (neutralization of pseudovirus) [4]: > 10 µg/mL | IC90 (neutralization of pseudovirus) [4]: > 10 µg/mL | IC95 (neutralization of pseudovirus) [4]: > 10 µg/mL | IC50 (neutralization of pseudovirus) [5]: > 10 µg/mL | IC80 (neutralization of pseudovirus) [5]: > 10 µg/mL | IC90 (neutralization of pseudovirus) [5]: > 10 µg/mL | IC95 (neutralization of pseudovirus) [5]: > 10 µg/mL | IC50 (neutralization of pseudovirus) [6]: 0.0433 µg/mL | IC80 (neutralization of pseudovirus) [6]: 0.2 µg/mL | IC90 (neutralization of pseudovirus) [6]: > 10 µg/mL | IC95 (neutralization of pseudovirus) [6]: > 10 µg/mL | IC50 (neutralization of pseudovirus) [7]: > 10 µg/mL | IC80 (neutralization of pseudovirus) [7]: > 10 µg/mL | IC90 (neutralization of pseudovirus) [7]: > 10 µg/mL | IC95 (neutralization of pseudovirus) [7]: > 10 µg/mL | IC50 (neutralization of pseudovirus) [8]: 0.0139 µg/mL | IC80 (neutralization of pseudovirus) [8]: 0.054 µg/mL | IC90 (neutralization of pseudovirus) [8]: 0.122 µg/mL | IC95 (neutralization of pseudovirus) [8]: 0.267 µg/mL | IC50 (neutralization of pseudovirus) [9]: 0.157 µg/mL | IC80 (neutralization of pseudovirus) [9]: 3.46 µg/mL | IC90 (neutralization of pseudovirus) [9]: > 10 µg/mL | IC95 (neutralization of pseudovirus) [9]: > 10 µg/mL | IC50 (neutralization of pseudovirus) [10]: > 10 µg/mL | IC80 (neutralization of pseudovirus) [10]: > 10 µg/mL | IC90 (neutralization of pseudovirus) [10]: > 10 µg/mL | IC95 (neutralization of pseudovirus) [10]: > 10 µg/mL | IC50 (neutralization of pseudovirus) [11]: > 10 µg/mL | IC80 (neutralization of pseudovirus) [11]: > 10 µg/mL | IC90 (neutralization of pseudovirus) [11]: > 10 µg/mL | IC95 (neutralization of pseudovirus) [11]: > 10 µg/mL | IC50 (neutralization of pseudovirus) [12]: 6.79 µg/mL | IC80 (neutralization of pseudovirus) [12]: > 10 µg/mL | IC90 (neutralization of pseudovirus) [12]: > 10 µg/mL | IC95 (neutralization of pseudovirus) [12]: > 10 µg/mL | IC50 (neutralization of pseudovirus) [13]: 0.545 µg/mL | IC80 (neutralization of pseudovirus) [13]: > 10 µg/mL | IC90 (neutralization of pseudovirus) [13]: > 10 µg/mL | IC95 (neutralization of pseudovirus) [13]: > 10 µg/mL | IC50 (neutralization of pseudovirus) [14]: > 10 µg/mL | IC80 (neutralization of pseudovirus) [14]: > 10 µg/mL | IC90 (neutralization of pseudovirus) [14]: > 10 µg/mL | IC95 (neutralization of pseudovirus) [14]: > 10 µg/mL | IC50 (neutralization of pseudovirus) [15]: 0.113 µg/mL | IC80 (neutralization of pseudovirus) [15]: 0.503 µg/mL | IC90 (neutralization of pseudovirus) [15]: 1.47 µg/mL | IC95 (neutralization of pseudovirus) [15]: 8.3 µg/mL | IC50 (neutralization of pseudovirus) [16]: 0.0183 µg/mL | IC80 (neutralization of pseudovirus) [16]: 0.0648 µg/mL | IC90 (neutralization of pseudovirus) [16]: 0.136 µg/mL | IC95 (neutralization of pseudovirus) [16]: 0.268 µg/mL | IC50 (neutralization of pseudovirus) [17]: 0.0123 µg/mL | IC80 (neutralization of pseudovirus) [17]: 0.0562 µg/mL | IC90 (neutralization of pseudovirus) [17]: 0.139 µg/mL | IC95 (neutralization of pseudovirus) [17]: 0.331 µg/mL | IC50 (neutralization of pseudovirus) [18]: > 10 µg/mL | IC80 (neutralization of pseudovirus) [18]: > 10 µg/mL | IC90 (neutralization of pseudovirus) [18]: > 10 µg/mL | IC95 (neutralization of pseudovirus) [18]: > 10 µg/mL | IC50 (neutralization of pseudovirus) [19]: > 10 µg/mL | IC80 (neutralization of pseudovirus) [19]: > 10 µg/mL | IC90 (neutralization of pseudovirus) [19]: > 10 µg/mL | IC95 (neutralization of pseudovirus) [19]: > 10 µg/mL | IC50 (neutralization of pseudovirus) [20]: > 10 µg/mL | IC80 (neutralization of pseudovirus) [20]: > 10 µg/mL | IC90 (neutralization of pseudovirus) [20]: > 10 µg/mL | IC95 (neutralization of pseudovirus) [20]: > 10 µg/mL | IC50 (neutralization of pseudovirus) [21]: 2.16 µg/mL | IC80 (neutralization of pseudovirus) [21]: > 10 µg/mL | IC90 (neutralization of pseudovirus) [21]: > 10 µg/mL | IC95 (neutralization of pseudovirus) [21]: > 10 µg/mL | IC50 (neutralization of pseudovirus) [22]: 0.104 µg/mL | IC80 (neutralization of pseudovirus) [22]: 0.253 µg/mL | IC90 (neutralization of pseudovirus) [22]: 0.43 µg/mL | IC95 (neutralization of pseudovirus) [22]: 0.72 µg/mL | IC50 (neutralization of pseudovirus) [23]: > 10 µg/mL | IC80 (neutralization of pseudovirus) [23]: > 10 µg/mL | IC90 (neutralization of pseudovirus) [23]: > 10 µg/mL | IC95 (neutralization of pseudovirus) [23]: > 10 µg/mL
